Laboratory results: a protein production outcome set (Wang et al. 2014)

Test: label from the status in PepcDB records

Sequence | protein production
MESYSPAQTCLELVPVLADDSISAASTSDVQDRLSALESRVQQQEDEITVLKAALADVLRRLAISEDHVASVKKSMPSKGQPSLREAISMSCITNGSGINRKQNHTSSISIARKETLSSAAKSGTEKKKEKPQGQREKKEESHSNDQSPQIRASPSPQPSSQPLQINRQTPESKSSAPTKSIKRPPTAEKSHNSWENSDDSRNKLLKTVSTSKLISKVIKNTDKHKDVIINQAKMSTREKSSQEGEYIKMFMRGRPITMFIPSDVDNYDDIRTELPPEKLKLEWVYGYRGKDCRANVYLLPTGEIVYFIASVVVLFNYEERTQRHYLGHTDCVKCLAVHPDKIRMATGQIAGVDKDGRPLQPHVRVWDSVSLSTLHVIGLGTFERGVGCLDFSKADSGVHLCVIDDSNEHMLTVWDWQRKSKVAEIKTTNEVVLAVEFHPTDANTIITCGKSHIFFWTWSGNSLTRKQGIFGKYEKPKFVQCLAFLGNGDVLTGDSGGVMLIWSKTTIEPPPGKGPKGVYQISRQIKAHDGSVFTLCQMRNGMLLTGGGKDRKIILWDHDLNLEREIEVPDQYGTIRAVAEGKAEQFLVGTSRNFILRGTFNDGFQIEVQGHTDELWGLATHPFKDLLLTCAQDRQVCMWNSVEHRLEWTRLVDEPGHCADFHPSGTVVAIGTHSGRWFVLDAETRDLVSIHTDGNEQLSVMRYSVDGTLLAVGSHDNFIYLYAVSENGRKYSRYGKCTGHSSYITHLDWSPDNKHIMSNSGDYEILYWDIENGCKLIRNRSDCKDIDWTTYTCVLGFQVFGVWPEGSDGTDINALVRSHHRRVIAVADDFCKVHLFQYPCSKPKAPSHKYSAHSSHVTNVSFTHNDSHLISTGGKDMSIIQWKLVEKLPLPQNEVIADTSSTKAPASATENARLCNAPQPPSQPLPGTAEEESRVSSSPTLVENSLEQSEWGSEDLGVVIDEEPASERGEKQGAAEASEEEQGAAPLC | failed
MFEFISLDRDGVLYIAAFLVIIRSVSLYIFSKGNNVDKANVNILMLVFFLLFMTASSLSSWPLIYFLALFFVGSIISFTWFTYSGMITPFGSGLTAISTTLLLCLLSYMLSFYETFVEHGFQAIFIAIFLFSIITSIYSFYYLPFSQNSLFYLNFKRNKKVMHIQSVSEVYSPKVTIHLPCYSEPPEIVINTLNSISALDYDNYEVIVIDNNTRDETLWKPVEKHCSMLGEKFRFYHVPVLAGAKAGALNYALKITSSDTELIAVIDADYITEPDFIRRYVKIFKDENVGFVQTSHDYYNHQSSPVMEGAYYFWTLFHKIELPSYTEINAAFTVGTMCILRRNILEKVGGWDETALTEDSELAVRMHAQGYIGYVFADTVGRGLIPTTFSDMKKQQVRWTAGPVQQLLKHWRLYFGFSSENKMTLNQRVMEIRHSTSRIKPVFSLISLHIMVVVSFFLLSGNVYLSIPYEFIVFFLCMLISTFIEKMAYFRLFNCSGILPVFYHGIMARALEWTFIYGVISSLFGFSMKWDRTNKFENSKSIKRAFLASKIEVVMSVFFFLYSFFLLSGNHSGYNDFVFLTGIACLVKGIGFLCALLVASLLENNLRILEAP | failed
MVYKPLEASDRTELRALQSDRLQRIVTHAHENVPFYREKLDAAGVSPEDIQSIDDITKLPMTTKEDFRDEYPDGLFAVDDEEVARIHASSGTTGKPKIVSYTDDDLDTWSEVVARSLAASGTEAGDTVQNAYGYGLFTGGLGIHYGTEELGASVVPIGSGQTQRQVELMTDLESDVFTCTPSYALYLAETAEEMGHDPRDLPISTIIFGAEPCTDPMREEIEERLGVDGIDIYGLSEIIGPGVSCECHEAKDGLHIWEDHFYPEVIDPHTKEPVEEGEEGELVLTTLTKEALPVFRYRTGDLTTLNYDECACGRTMVRMDNVTGRTDDLLIVRGVNLYPSEIEHAVLDIDGVAPHYRIDLYKEDNLDILELTIERTAEQGPGDKALEDEIIERLENVLAFTPDELELVAPGSIERTQVGKVKRVYDHRD | not failed
MWPDRRLIDLFKTEFPIVLAPMAGVMDAELVIAAAQGGALGSLPCAMLSAEKAREQVGLIRQRVKAPVNMNFFCHTPVDLTPEAEARWKQRLAGYYREHGLDPAAPISAANRAPFDAAFCEVVEELKPDVVSFHFGLPEQELLKRVKAAGSLVISSATTVKEAVWLERHGADAVIAQGAEAGGHRGMFLTDKIAEQPGTFALVPQVADAVKVPVIAAGGIADGRGIAAAFALGASGVQIGSAYLRCPESKVSAAGRAALAEGRDDSTVITNVMTGRPARGVQNRLMREAGPISPDAPPFPHAATALGPLKAAAEKQGRVDFTNLWAGQAIALGRELPAAELTRDLAKSALARMKALAG | failed
MFKTLEVKYMEDRVLDWAVYEKTAREMVAEGLVLLKNDNKALPLKQGETVSVFGRMQNHYYKSGTGSGGMVNVAKVVGILDALNECKDVNVNQKLAETYAAWDKEHPVELGLGWGQEPWSQAEMPVTEELVQEAAGESDSAIVIIARTAGEDKDNTLEKGAFMLTDIETDMLRLVRENFQKMVVLLNVGGLIDMSFLDTISPDACMYVWQGGMVGGYGVVDVLVGDVSPSGKLTDTIAYDIKDYPAYDNFGGEERNFYAEDIYVGYRYFETFAKDKVRYPFGYGLSYTDFKIGVKHASLDFEKGVANICVKVTNTGKRLGKEVVQVYGEMPQGRLGKPSRVLIDFAKTKELVPGLSDELKFEIPLDRMASFDDSGATGHRNCYVLEAGDYTIHVGNSIRNTTECLFFELAETVELQKLQEALAPYEKFDRMKPFCDENGRMLIEYEETPLVTVDMYDRREQELPEEIPVTGDKGITLLDVREGKATMDEFIAQFDDEDLACFVRGEGMGSSLVTAGTASAFAGVSPNLIAHKIPSVCCDDGPSGMRLDSGMKAFSLPNGTLCGCSFNKELNTRLYALLGLEMTANKVEVLLGPGMNIHRHPLNGRNFEYFSEDPYLTGSIATAQLEGLKSSGVSGTIKHFCGNNQEYHRHTMDSVISQRALREVYLKGFEIAVKSGYADSVMTTYGLVNGLYTAGSYDLNTTILRNEWGFTGVVMTDWWASINRRGMEPDANDFATMIQAQNDMYMCCPDGSKNMGGDNVLEALHDGRILRAELQRIAKNVCSFAMDTNAFKRLVGEPVEIEIINRPKQADDFSIDDVEYINVDRDILIDLTEKASTADTNYVIALDVEHPGEYDVSLRGSSTLEKLAQLPCTLFFNGFPVSNFTFNGTDGKDVVIRKEVKFYSRFNVLRLYVKSNGLDLKDIKFSFEKEF | failed
LNTAPIFMPNTVGGYFPGPRTFPGNKKILYNSSTMVKALSRGYVVVSAGLRGRTLTNEKGEFIGKAPAFIIDMKAAIRYIKFNKDNFPGDVNKIITNGTSAGGAISALIGASGNNVFFEKELDEIGAADSSDNIFAVSAYCPIHNLENADAAYEWQFNGINDWHTQKIDIKNGKAEFSPLNGQLNELEKQLSSKLKNQFIEYLNSLRLRNPDGDYLTLNKIGEGNFLDLTKKFLIKSAQTEIEKGNELNNPNFLDIRNGKVVSLKWKAYLRYITRMKKVPAFDDLGLNNPENDLFGDIKIKAKHFTEIGQKYSEKTAKKADPELVTAINPLNYLNNQSNSLIAKHWRIRHGAADRDTSFAVPIILATTLQNMNLDIDFFMPWAKPHSGDYDLIDLFDWIDSLVKEK | failed
MTLISRILGLVRDVVIASLLGAGAMSDVFLFANRIPNFLRRLFAEGAFSKAFVPVLAEYNADNDLDKTREFIAKVSGTLGLLVTVVTLVAMLISPIIAALFGTGWFIDWFNDGPDAQKFTQASLLLKITFPYLWFITFIALSGAVLNTIGKFGVMAFSPVLLNVAMISMALFGADYFEQPDIALAWGIFLGGLLQFLFQIPFMIKERLLVKPKWAWKDEGVTKVRRLMIPALFGVSVTQINLLLNQVIASFLVTGSITWLYYSDRLIEFPLGLFGIAISTVVLPNLSRITKKKALNEEQRAIAFKQTLDWGVRMVVALGIPAMVGIAILAQPLIMTIFMRGKFVLADVIATSHALWIMCLGLNSYMLISVLANGFYARQNTKTPVKIGIIATIANICFGVLAIPFGYLGLAMASALSAAVNASLLYYNLVKEQAYCLSKKTVIFILKVAISACAMGVLVSYFSPTLTDWYAMKMWLKVHWLVWLISLAAISYFAVLMVLGIRKQDFRA | failed
MNNPKPCEWKSNELSRGYIADYKAFNFVDGEGVRCSLYVSGCPFHCEGCYNKAAQSFKYGKPYTKELEDDILKDIGHESVQGLTLLGGEPFLNTATCLSVVKRIRATYGKTKDIWSWTGYTWDEMMQETTDKLELLSLIDVLVDGRFEQKLFDPNLAFRGSSNQRIIDVQKSLAADEVVLYELLEHHHHHH | not failed
